Assay [1] deals with T1, human NKG2D expressed on cells (human, UniProt P26718 1-216).
T1 construct: the cell type is named under assay; also called NKG2D on NK92 cells; HEK293T human NKG2D
T1 chain: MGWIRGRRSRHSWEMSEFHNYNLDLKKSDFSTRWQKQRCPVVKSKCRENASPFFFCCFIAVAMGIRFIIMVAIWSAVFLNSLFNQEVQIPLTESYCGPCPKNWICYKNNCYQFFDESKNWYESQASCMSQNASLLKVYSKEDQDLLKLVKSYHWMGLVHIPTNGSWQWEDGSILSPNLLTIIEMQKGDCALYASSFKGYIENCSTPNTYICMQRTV
Kind of assay: flow cytometry on NK92 cells, PE anti-human Fc secondary antibody. On the technique in general: In flow cytometry, cells or beads pass a laser one at a time.

A further assay deals with T2, his avi huNKG2D ECD (human, biotinylated at the avi-tag (in the ELISA)).
T2 construct: Human NKG2D ECD with N-terminal H6-avi tags, forms non-covalent dimers; also called recombinant human NKG2D
T2 chain: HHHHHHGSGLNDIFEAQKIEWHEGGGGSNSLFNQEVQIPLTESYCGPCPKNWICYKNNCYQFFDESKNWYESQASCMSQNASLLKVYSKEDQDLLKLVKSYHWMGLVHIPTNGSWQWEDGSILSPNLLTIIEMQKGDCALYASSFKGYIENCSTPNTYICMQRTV
The assay is described as follows: SPR Biacore T200; antigen captured via anti-His, bispecific analyte. On the procedure:
(§1) On a CM5 chip, an anti-penta-His capture antibody (Qiagen Penta-His Antibody, BSA-free; #34660) was immobilized by standard amine coupling on flow cells 2 and 3 at approximately 12′000 RU. […] Regeneration at the level of the anti-H6 tag capture antibody was achieved by 2 pulses of 10 mM glycine/HCl pH 2.0 for 60 s. Data were double-referenced against the unimmobilized flow cell 1 and a zero concentration of the analyte. The sensorgrams of the analytes were fitted to a simple 1:1 Langmuir interaction model.
On the technique in general: SPR reads the build-up and loss of mass on a sensor chip optically.

In a further assay the target is T3, hu N(A2B2)A-avi-His (human).
T3 construct: Construct containing the A2 domain of human CEA, with avi and His tags; also called human CEA (A2 domain)
T3 chain: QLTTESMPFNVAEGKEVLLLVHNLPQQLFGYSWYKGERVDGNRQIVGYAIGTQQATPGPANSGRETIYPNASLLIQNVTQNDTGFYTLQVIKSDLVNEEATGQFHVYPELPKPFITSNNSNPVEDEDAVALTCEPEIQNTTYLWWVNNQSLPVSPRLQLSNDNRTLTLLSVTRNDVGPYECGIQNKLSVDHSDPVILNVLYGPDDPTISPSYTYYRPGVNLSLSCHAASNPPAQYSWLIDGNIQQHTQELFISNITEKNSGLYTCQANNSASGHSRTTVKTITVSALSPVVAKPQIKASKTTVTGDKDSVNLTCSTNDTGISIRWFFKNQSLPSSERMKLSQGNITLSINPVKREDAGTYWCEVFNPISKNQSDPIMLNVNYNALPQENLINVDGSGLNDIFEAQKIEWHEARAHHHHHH
Described as above. On the procedure: as §1

Assay [2] deals with T1, human NKG2D expressed on cells. Kind of assay: flow cytometry; NK92 cells.

B1: NKG2D×CEA bispecific antibody in M format, P1AE4980 / huA5B7 (bispecific antibody, human IgG1, kappa, L234A L235A)
heavy 1: not shown
heavy 2: EVQLLESGGGLVQPGGSLRLSCAASGFTFTDYYMNWVRQAPGKGLEWLGFIGNKANAYTTEYSASVKGRFTISRDKSKNTLYLQMNSLRAEDTATYYCTRDRGLRFYFDYWGQGTTVTVSSASTKGPSVFPLAPSSKSTSGGTAALGCLVEDYFPEPVTVSWNSGALTSGVHTFPAVLQSSGLYSLSSVVTVPSSSLGTQTYICNVNHKPSNTKVDEKVEPKSCDKTHTCPPCPAPEAAGGPSVFLFPPKPKDTLMISRTPEVTCVVVDVSHEDPEVKFNWYVDGVEVHNAKTKPREEQYNSTYRVVSVLTVLHQDWLNGKEYKCKVSNKALGAPIEKTISKAKGQPREPQVCTLPPSRDELTKNQVSLSCAVKGFYPSDIAVEWESNGQPENNYKTTPPVLDSDGSFFLVSKLTVDKSRWQQGNVFSCSVMHEALHNHYTQKSLSLSP
light 1: QEQLVQSGAEVKKPGESLKISCKGSGFDFNTFWMTWVRQMPGKGLEWMGSIHGGSGSRDYSPSFQGQVTISADIDQSTAYLQWSSLKASDTAMYYCARPGYRSWSKTFDLWGQGTTVTVSSASVAAPSVFIFPPSDEQLKSGTASVVCLLNNFYPREAKVQWKVDNALQSGNSQESVTEQDSKDSTYSLSSTLTLSKADYEKHKVYACEVTHQGLSSPVTKSFNRGEC
light 2: EIVLTQSPATLSLSPGERATLSCRASSSVTYIHWYQQKPGQAPRSWIYATSNLASGIPARFSGSGSGTDFTLTISSLEPEDFAVYYCQHWSSKPPTFGQGTKLEIKRTVAAPSVFIFPPSDRKLKSGTASVVCLLNNFYPREAKVQWKVDNALQSGNSQESVTEQDSKDSTYSLSSTLTLSKADYEKHKVYACEVTHQGLSSPVTKSFNRGEC
notes: also called NKG2D×CEA bispecific antibody (humanized anti-NKG2D antibody variant P1AE4980, M format)
For orientation: EC50 (read off the curve) means the concentration giving half of the maximal effect. Read a low EC50 (read off the curve) as greater potency. As a reminder, the Kd is the constant that tells how readily two partners part at equilibrium. Read a high Kd as weaker binding. Usually EC50 stands for the concentration needed to bring the measured effect to its halfway point. Higher therefore signals a less potent agent. For B1, the “EC50 (read off the curve)” value in assay [1] was around 3 nM. The Kd with his avi huNKG2D ECD was 12.6 nM; in the assay with hu N(A2B2)A-avi-His, 3.45 nM. A half-maximal effect in assay [2] (EC50) was put at 7.38 nM.

(Values after US20240067734A1 (Hoffmann-La Roche, published 2024).)
